Blank lines part the entries; values can stand above or below the substance they belong to.
How the values were obtained:
[1] = molecular target: EGF456 (TM456) component of the thrombin-thrombomodulin fusion proteins (human) (UniProt P07204)
[2] = molecular target: fragment TM456 of human thrombomodulin (soluble EGF456 domains) (human) (UniProt P07204)
[3] = molecular target: fragment TM456 of human thrombomodulin (soluble EGF456 domains) (human) (UniProt P07204); experiment: SPR; biotinyl-TM456 on a neutravidin-coated CM5 chip (177 RU); thrombin injected at 30 μl/min, contact and dissociation 120 sec; 25 °C; Biacore-S200; TM456 loaded in 10 mM HEPES pH 7.4, 150 mM NaCl, 2.5 mM Ca2+, 0.05% Tween20; Kd from response units at the steady state
[4] = molecular target: Full-length rabbit thrombomodulin (TM) (rabbit)

kcat/KM of protein C activation by FP31WE (thrombin WE fused to EGF456, 31-residue linker) [1]: 550 M⁻¹ s⁻¹
Substance: thrombin W215A/E217A (WE) component of the fusion protein FP31WE (domain or fragment)

kcat/KM of protein C activation by thrombin WE with 500 nM TM456 [2]: 380 M⁻¹ s⁻¹ | Kd [3]: 31 nM
Substance: thrombin double mutant W215A/E217A (WE) (enzyme)

kcat/KM of protein C activation by FP31W215A (thrombin W215A fused to EGF456, 31-residue linker) [1]: 3300 M⁻¹ s⁻¹ | kcat/KM of protein C activation by thrombin W215A with 500 nM TM456 [2]: 3200 M⁻¹ s⁻¹ | Kd [3]: 23 nM
Substance: thrombin mutant W215A (enzyme)

kcat/KM of cleavage of the PAR1 fragment by FP7 (thrombin fused to TM456, 7-residue linker) [1]: 5.8e+06 M⁻¹ s⁻¹ | kcat/KM of cleavage of the PAR1 fragment by FP17 (thrombin fused to TM456, 17-residue linker) [1]: 2e+06 M⁻¹ s⁻¹ | kcat/KM of cleavage of the PAR1 fragment by FP31 (thrombin fused to TM456, 31-residue linker) [1]: 300000 M⁻¹ s⁻¹ | kcat/KM of cleavage of the PAR1 fragment by FP41 (thrombin fused to TM456, 41-residue linker) [1]: 950000 M⁻¹ s⁻¹ | kcat/KM of cleavage of the PAR1 fragment by FP55 (thrombin fused to TM456, 55-residue linker) [1]: 2.3e+06 M⁻¹ s⁻¹ | kcat/KM of cleavage of the PAR1 fragment by FP69 (thrombin fused to TM456, 69-residue linker) [1]: 1.4e+07 M⁻¹ s⁻¹ | kcat/KM of fibrinopeptide A release by FP7 (thrombin fused to TM456, 7-residue linker) [1]: 6.7e+06 M⁻¹ s⁻¹ | kcat/KM of fibrinopeptide A release by FP17 (thrombin fused to TM456, 17-residue linker) [1]: 1.55e+06 M⁻¹ s⁻¹ | kcat/KM of fibrinopeptide A release by FP31 (thrombin fused to TM456, 31-residue linker) [1]: 300000 M⁻¹ s⁻¹ | kcat/KM of fibrinopeptide A release by FP41 (thrombin fused to TM456, 41-residue linker) [1]: 600000 M⁻¹ s⁻¹ | kcat/KM of fibrinopeptide A release by FP55 (thrombin fused to TM456, 55-residue linker) [1]: 1.3e+06 M⁻¹ s⁻¹ | kcat/KM of fibrinopeptide A release by FP69 (thrombin fused to TM456, 69-residue linker) [1]: 1.1e+07 M⁻¹ s⁻¹ | kcat/KM of protein C activation by FP7 (thrombin fused to TM456, 7-residue linker) [1]: 1100 M⁻¹ s⁻¹ | kcat/KM of protein C activation by FP17 (thrombin fused to TM456, 17-residue linker) [1]: 6100 M⁻¹ s⁻¹ | kcat/KM of protein C activation by FP31 (thrombin fused to TM456, 31-residue linker) [1]: 85000 M⁻¹ s⁻¹ | kcat/KM of protein C activation by FP41 (thrombin fused to TM456, 41-residue linker) [1]: 107000 M⁻¹ s⁻¹ | kcat/KM of protein C activation by FP55 (thrombin fused to TM456, 55-residue linker) [1]: 120000 M⁻¹ s⁻¹ | kcat/KM of protein C activation by FP69 (thrombin fused to TM456, 69-residue linker) [1]: 74000 M⁻¹ s⁻¹ | kcat/KM of protein C activation by thrombin with 500 nM TM456 [2]: 80000 M⁻¹ s⁻¹ | kcat/KM of protein C activation by thrombin with TM [4]: 230000 M⁻¹ s⁻¹ | Kd [3]: 18 nM
Substance: thrombin wild-type (enzyme)

Reference: article PMC5353707
